Data reported in article PMC5797828 (Cancer Science, 2017).

Molecular target: T1, Human γ-catenin, MYC/DDK-Tag (recombinant) (human, UniProt P14923 1-745)
T1 sequence (looked up): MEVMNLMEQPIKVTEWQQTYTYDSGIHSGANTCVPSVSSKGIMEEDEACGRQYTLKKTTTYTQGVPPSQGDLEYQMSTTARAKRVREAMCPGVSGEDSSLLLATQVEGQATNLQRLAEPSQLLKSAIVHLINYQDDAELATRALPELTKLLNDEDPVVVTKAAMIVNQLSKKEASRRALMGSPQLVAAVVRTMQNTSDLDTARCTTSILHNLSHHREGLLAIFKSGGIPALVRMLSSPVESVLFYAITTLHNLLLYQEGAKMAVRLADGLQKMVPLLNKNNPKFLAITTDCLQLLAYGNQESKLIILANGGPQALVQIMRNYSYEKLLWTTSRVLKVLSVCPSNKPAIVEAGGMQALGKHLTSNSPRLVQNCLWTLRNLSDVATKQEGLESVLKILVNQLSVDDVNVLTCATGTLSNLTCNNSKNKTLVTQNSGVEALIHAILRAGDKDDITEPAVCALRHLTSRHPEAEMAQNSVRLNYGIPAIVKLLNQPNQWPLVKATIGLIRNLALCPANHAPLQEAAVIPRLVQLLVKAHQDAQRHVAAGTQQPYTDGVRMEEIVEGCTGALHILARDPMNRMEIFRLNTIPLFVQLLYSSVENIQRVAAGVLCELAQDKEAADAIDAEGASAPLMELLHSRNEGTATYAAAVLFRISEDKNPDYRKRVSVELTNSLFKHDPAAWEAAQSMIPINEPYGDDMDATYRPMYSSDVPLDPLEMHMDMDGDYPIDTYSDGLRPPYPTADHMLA
Experiment: SPR

B1: Human PRDM14, GST-Tag at N-terminus (GST-PRDM14) (natural protein, UniProt Q9GZV8 1-571, looked up)
chain: MALPRPSEAVPQDKVCYPPESSPQNLAAYYTPFPSYGHYRNSLATVEEDFQPFRQLEAAASAAPAMPPFPFRMAPPLLSPGLGLQREPLYDLPWYSKLPPWYPIPHVPREVPPFLSSSHEYAGASSEDLGHQIIGGDNESGPCCGPDTLIPPPPADASLLPEGLRTSQLLPCSPSKQSEDGPKPSNQEGKSPARFQFTEEDLHFVLYGVTPSLEHPASLHHAISGLLVPPDSSGSDSLPQTLDKDSLQLPEGLCLMQTVFGEVPHFGVFCSSFIAKGVRFGPFQGKVVNASEVKTYGDNSVMWEIFEDGHLSHFIDGKGGTGNWMSYVNCARFPKEQNLVAVQCQGHIFYESCKEIHQNQELLVWYGDCYEKFLDIPVSLQVTEPGKQPSGPSEESAEGYRCERCGKVFTYKYYRDKHLKYTPCVDKGDRKFPCSLCKRSFEKRDRLRIHILHVHEKHRPHKCSTCGKCFSQSSSLNKHMRVHSGDRPYQCVYCTKRFTASSILRTHIRQHSGEKPFKCKYCGKSFASHAAHDSHVRRSHKEDDGCSCSICGKIFSDQETFYSHMKFHEDY
binding result: binds
